We go through 9 molecules from patent publication US20240425571A1 (OHIO STATE INNOVATION FOUNDATION, published 2024).

Assay [1] deals with T1, human GARP (antigen, construct not stated) (human, UniProt Q14392 20-627, limits assumed).
T1 sequence (looked up): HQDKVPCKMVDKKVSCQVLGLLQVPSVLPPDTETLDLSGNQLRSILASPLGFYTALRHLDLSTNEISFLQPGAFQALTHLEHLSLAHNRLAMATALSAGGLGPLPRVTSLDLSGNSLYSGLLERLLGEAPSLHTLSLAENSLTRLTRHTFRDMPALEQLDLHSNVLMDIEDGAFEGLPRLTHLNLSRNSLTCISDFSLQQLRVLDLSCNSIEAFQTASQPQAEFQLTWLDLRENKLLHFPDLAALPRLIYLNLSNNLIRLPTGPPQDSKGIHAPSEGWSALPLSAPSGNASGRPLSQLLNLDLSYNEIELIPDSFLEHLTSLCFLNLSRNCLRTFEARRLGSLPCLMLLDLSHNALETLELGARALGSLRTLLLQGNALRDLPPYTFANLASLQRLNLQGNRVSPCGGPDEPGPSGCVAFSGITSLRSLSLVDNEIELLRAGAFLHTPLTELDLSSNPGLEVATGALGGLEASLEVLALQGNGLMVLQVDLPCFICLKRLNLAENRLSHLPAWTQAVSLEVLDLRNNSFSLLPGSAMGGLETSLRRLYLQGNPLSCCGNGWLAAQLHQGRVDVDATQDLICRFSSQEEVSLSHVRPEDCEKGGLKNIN
The experiment in a line: Gator label-free kinetics, IgG on anti-human Fc probe, antigen 5 ug/ml.

The target in assay [2] is T2, human GARP (glycoprotein A repetitions predominant, LRRC32) on the cell surface (human, UniProt Q14392 20-662).
T2 construct: whole, on cells; also called hGARP; free GARP
T2 sequence (looked up): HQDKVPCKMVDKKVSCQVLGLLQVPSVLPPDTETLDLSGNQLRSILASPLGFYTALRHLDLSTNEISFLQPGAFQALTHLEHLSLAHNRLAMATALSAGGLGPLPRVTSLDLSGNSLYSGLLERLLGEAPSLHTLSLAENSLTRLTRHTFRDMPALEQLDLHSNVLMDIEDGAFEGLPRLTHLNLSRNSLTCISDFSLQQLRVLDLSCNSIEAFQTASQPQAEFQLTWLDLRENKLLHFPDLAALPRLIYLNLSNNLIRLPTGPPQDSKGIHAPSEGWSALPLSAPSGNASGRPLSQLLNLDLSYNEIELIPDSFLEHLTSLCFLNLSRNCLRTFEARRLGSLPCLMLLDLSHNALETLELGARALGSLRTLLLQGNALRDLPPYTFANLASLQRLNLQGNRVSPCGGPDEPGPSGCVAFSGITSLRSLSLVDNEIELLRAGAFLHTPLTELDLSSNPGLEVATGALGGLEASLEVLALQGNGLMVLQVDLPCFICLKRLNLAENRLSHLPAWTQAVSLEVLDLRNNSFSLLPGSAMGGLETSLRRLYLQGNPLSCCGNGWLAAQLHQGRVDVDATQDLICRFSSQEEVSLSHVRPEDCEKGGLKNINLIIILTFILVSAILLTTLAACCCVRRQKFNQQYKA
Description: FACS, Ag(+) cells, heated-sample series, 0 ug/ml antibody (blank). (A flow cytometer gives signals particle by particle.)

The target of assay [3] is T2, human GARP (glycoprotein A repetitions …). Description: FACS, Ag(+) cells, supernatant heated 70 C 5 min, 5 ug/ml.
Assay [4] has the same target. The experiment in a line: FACS, Ag(+) cells, culture supernatant, 1 ug/ml.
The target is the same in assay [5]. The experiment in a line: FACS, Ag(+) cells, culture supernatant, 5 ug/ml.
Assay [6] has the same target. Description: FACS, Ag(+) cells, culture supernatant, 0.2 ug/ml.
Assay [7] shares this target. Description: FACS, Ag(+) cells, 0 ug/ml antibody (blank).
For assay [8] the target is unchanged. Description: FACS, Ag(+) cells, supernatant heated 70 C 5 min, 1 ug/ml.
The target is the same in assay [9]. Description: FACS, Ag(+) cells, supernatant heated 70 C 5 min, 0.2 ug/ml.

B1: huPIIO-1VH1VL1 (antibody, V domains shown)
VH: QVQLQESGPGLVKPSQTLSLTCTVSGYSITSDYAWNWIRQFPGNKLEWMGYISYSGSTSYTPSLKSRVTISRDTSKNHFSLKLSSVTAADTAVYYCAKSGGDYYGSSSYWYFDVWGQGTMVTVSS
VL: DIVLTQSPSSLAVSLGERATMNCKSSQSLLNSRSQKNYLAWYQQKPGQPPKLLIYGASTRGSGVPDRFSGSGSGTDFTLTISSLQAEDVAVYYCQNDHSYPFTFGQGTKLEIKR
notes: Humanized 4D3/PIIO-1 IgG made in Expi293 cells; also called H1L1; HuPIIO-1VH1/L1
In the case of B1, in [1], binding was characterised by a dissociation constant (Kd) of 8.05 nM. The molecule further displayed a Req in assay [1] of 0.743. Also, the Response in assay [1] is 0.737. In assay [1], the kobs is 0.0134. In addition, the MFI amounted to 9.91 MFI in [2]; 26.2 MFI in assay [3]; 25.8 MFI in assay [4]; 26.4 MFI in assay [5]; 23.9 MFI in [6]; 9.91 MFI in assay [7].

B2: huPIIO-1VH2VL2 (antibody, V domains shown)
VH: QVQLQESGPGLVKPSQTLSLTCTVSGYSITSDYAWNWIRQFPGNKLEWMGYISYSGSTSYTPSLKSRITISRDTSKNHFFLKLSSVTAADTAVYYCAKSGGDYYGSSSYWYFDVWGQGTMVTVSS
VL: DIVLTQSPSSLAVSLGERVTMNCKSSQSLLNSRSQKNYLAWYQQKPGQPPKLLIYGASTRGSGVPDRFSGSGSGTDFTLTISSVQAEDVAVYYCQNDHSYPFTFGQGTKLEIKR
notes: Humanized IgG from Expi293, tested as culture supernatant; also called H2L2; HuPIIO-1VH2/L2
Take B2: the MFI stood at 24.8 MFI in [8]; 9.91 MFI in assay [2]; 26.1 MFI in [3]; 26.2 MFI in assay [5]; 23.2 MFI in [6]; 9.91 MFI in [7]. This molecule registered an MFI in [9] of 22.6 MFI.

B3: huPIIO-1VH2VL3 (antibody, V domains shown)
VH: QVQLQESGPGLVKPSQTLSLTCTVSGYSITSDYAWNWIRQFPGNKLEWMGYISYSGSTSYTPSLKSRITISRDTSKNHFFLKLSSVTAADTAVYYCAKSGGDYYGSSSYWYFDVWGQGTMVTVSS
VL: DIVLTQSPSSLAVSAGERVTMSCKSSQSLLNSRSQKNYLAWYQQKPGQPPKLLIYGASTRGSGVPDRFSGSGSGTDFTLTISSVQAEDVAVYYCQNDHSYPFTFGSGTKLEIKR
notes: Humanized IgG from Expi293, tested as culture supernatant; also called H2L3; HuPIIO-1VH2/L3
In the case of B3, the MFI in [8] was 25.4 MFI; in assay [2], 9.91 MFI; in assay [3] it was 26.4 MFI; in assay [4], 25.6 MFI; in [5], 26.5 MFI; in assay [6] it was 23.4 MFI. In addition, the MFI was 9.91 MFI in assay [7] and 23.2 MFI in assay [9].

B4: huPIIO-1VH2VL1 (antibody, V domains shown)
VH: QVQLQESGPGLVKPSQTLSLTCTVSGYSITSDYAWNWIRQFPGNKLEWMGYISYSGSTSYTPSLKSRITISRDTSKNHFFLKLSSVTAADTAVYYCAKSGGDYYGSSSYWYFDVWGQGTMVTVSS
VL: DIVLTQSPSSLAVSLGERATMNCKSSQSLLNSRSQKNYLAWYQQKPGQPPKLLIYGASTRGSGVPDRFSGSGSGTDFTLTISSLQAEDVAVYYCQNDHSYPFTFGQGTKLEIKR
notes: Humanized IgG from Expi293; also called H2L1; HuPIIO-1VH2/L1
Regarding B4, the MFI in [8] is 25.1 MFI; in assay [2], 9.91 MFI; in [3] it was 26.2 MFI; in assay [5] it was 26.8 MFI; in assay [6], 23.3 MFI; in [7], 9.91 MFI. This molecule showed an MFI in assay [9] of 23 MFI. For the same molecule, the Kd (commonly the concentration at which binding is half-saturated) in assay [1] was 8.03 nM. The molecule further gave a Req in [1] of 0.71. Besides, the Response in assay [1] was 0.703. For the same molecule, the kobs in assay [1] turned out to be 0.0133.

B5: huPIIO-1VH3VL2 (antibody, V domains shown)
VH: DVQLQESGPGLVKPSQTLSLTCTVSGYSITSDYAWNWIRQFPGNKLEWMGYISYSGSTSYTPSLKSRITISRDTSKNHFFLKLSSVTAADTATYYCAKSGGDYYGSSSYWYFDVWGQGTTVTVSS
VL: DIVLTQSPSSLAVSLGERVTMNCKSSQSLLNSRSQKNYLAWYQQKPGQPPKLLIYGASTRGSGVPDRFSGSGSGTDFTLTISSVQAEDVAVYYCQNDHSYPFTFGQGTKLEIKR
notes: Humanized IgG from Expi293, tested as culture supernatant; also called H3L2
Consider B5, for which the MFI is 24.6 MFI in assay [8]; 9.91 MFI in [2]; 26.5 MFI in [3]; 24.9 MFI in assay [4]; 26.4 MFI in assay [5]; 22.7 MFI in assay [6]. Further, the MFI in [7] came out at 9.91 MFI; in assay [9], 22.7 MFI.

B6: huPIIO-1VH3VL3 (antibody, V domains shown)
VH: DVQLQESGPGLVKPSQTLSLTCTVSGYSITSDYAWNWIRQFPGNKLEWMGYISYSGSTSYTPSLKSRITISRDTSKNHFFLKLSSVTAADTATYYCAKSGGDYYGSSSYWYFDVWGQGTTVTVSS
VL: DIVLTQSPSSLAVSAGERVTMSCKSSQSLLNSRSQKNYLAWYQQKPGQPPKLLIYGASTRGSGVPDRFSGSGSGTDFTLTISSVQAEDVAVYYCQNDHSYPFTFGSGTKLEIKR
notes: Humanized IgG from Expi293, tested as culture supernatant; also called H3L3; HuPIIO-1VH3/L3
For B6, the MFI worked out at 24.6 MFI in [8]; 9.91 MFI in [2]; 25.8 MFI in assay [3]; 25.3 MFI in assay [4]; 26.2 MFI in assay [5]; 21.9 MFI in [6]. For the same molecule, the MFI in [7] is 9.91 MFI; in [9], 22.1 MFI.

B7: huPIIO-1VH1VL2 (antibody, V domains shown)
VH: QVQLQESGPGLVKPSQTLSLTCTVSGYSITSDYAWNWIRQFPGNKLEWMGYISYSGSTSYTPSLKSRVTISRDTSKNHFSLKLSSVTAADTAVYYCAKSGGDYYGSSSYWYFDVWGQGTMVTVSS
VL: DIVLTQSPSSLAVSLGERVTMNCKSSQSLLNSRSQKNYLAWYQQKPGQPPKLLIYGASTRGSGVPDRFSGSGSGTDFTLTISSVQAEDVAVYYCQNDHSYPFTFGQGTKLEIKR
notes: Humanized IgG from Expi293; also called H1L2; HuPIIO-1VH1/L2
In assay [1], B7 gave a Kd of 8.15 nM. The same molecule registered a Req in assay [1] of 0.831. For the same molecule, the Response in [1] came out at 0.824. Further, the kobs in assay [1] was found to be 0.0133. The MFI in assay [2] is 9.91 MFI; in assay [3] it was 25.7 MFI; in [4], 25.2 MFI; in [5] it was 26.1 MFI; in [6], 22.2 MFI; in assay [7], 9.91 MFI. For the same molecule, the MFI in assay [9] is 21.8 MFI.

B8: huPIIO-1VH3VL1 (antibody, V domains shown)
VH: DVQLQESGPGLVKPSQTLSLTCTVSGYSITSDYAWNWIRQFPGNKLEWMGYISYSGSTSYTPSLKSRITISRDTSKNHFFLKLSSVTAADTATYYCAKSGGDYYGSSSYWYFDVWGQGTTVTVSS
VL: DIVLTQSPSSLAVSLGERATMNCKSSQSLLNSRSQKNYLAWYQQKPGQPPKLLIYGASTRGSGVPDRFSGSGSGTDFTLTISSLQAEDVAVYYCQNDHSYPFTFGQGTKLEIKR
notes: Humanized IgG from Expi293, tested as culture supernatant; also called H3L1; HuPIIO-1VH3/L1
B8: the MFI worked out at 9.91 MFI in [2]; 25.7 MFI in assay [3]; 25.1 MFI in assay [4]; 26.7 MFI in [5]; 23.9 MFI in [6]; 9.91 MFI in assay [7]. The molecule also came in with an MFI in assay [9] of 23.6 MFI.

B9: huPIIO-1VH1VL3 (antibody, V domains shown)
VH: QVQLQESGPGLVKPSQTLSLTCTVSGYSITSDYAWNWIRQFPGNKLEWMGYISYSGSTSYTPSLKSRVTISRDTSKNHFSLKLSSVTAADTAVYYCAKSGGDYYGSSSYWYFDVWGQGTMVTVSS
VL: DIVLTQSPSSLAVSAGERVTMSCKSSQSLLNSRSQKNYLAWYQQKPGQPPKLLIYGASTRGSGVPDRFSGSGSGTDFTLTISSVQAEDVAVYYCQNDHSYPFTFGSGTKLEIKR
notes: Humanized IgG from Expi293, tested as culture supernatant; also called H1L3; HuPIIO-1VH1/L3
In the case of B9, the MFI amounted to 25.4 MFI in [8]; 9.91 MFI in assay [2]; 26.3 MFI in assay [3]; 25.7 MFI in assay [4]; 26.3 MFI in [5]; 22.9 MFI in assay [6]. Also, the MFI in assay [7] was determined as 9.91 MFI; in assay [9], 23 MFI.
